# Results taken from patent publication US20150057236.
# Marks after values point to notes of the source that are not given here.
# Legend:
# [1] = tested on: H3K9 succinyl peptide
# [2] = tested on: H3K9 acetyl peptide
# [3] = tested on: ACS2 K628 (623-632 + WW) acetyl peptide
# [4] = tested on: ACS2 K628 (623-632 + WW) malonyl peptide
# [5] = tested on: ACS2 K628 (623-632 + WW) succinyl peptide
# [6] = target: GDH K503 (498-509 + WW) acetyl peptide (UniProt P00367)
# [7] = target: GDH K503 (498-509 + WW) malonyl peptide (UniProt P00367)
# [8] = target: GDH K503 (498-509 + WW) succinyl peptide (UniProt P00367)
# [9] = target: H3 K9 (4-13 + WW) acetyl peptide (UniProt P68431)
# [10] = target: H3 K9 (4-13 + WW) malonyl peptide (UniProt P68431)
# [11] = target: H3 K9 (4-13 + WW) succinyl peptide (UniProt P68431)
# [12] = tested on: H3K9 malonyl peptide
# [13] = tested on: KQTAR(SuK)-AMC peptide
# Chain of Sirt5 R105M (chain, as listed by the source R105M): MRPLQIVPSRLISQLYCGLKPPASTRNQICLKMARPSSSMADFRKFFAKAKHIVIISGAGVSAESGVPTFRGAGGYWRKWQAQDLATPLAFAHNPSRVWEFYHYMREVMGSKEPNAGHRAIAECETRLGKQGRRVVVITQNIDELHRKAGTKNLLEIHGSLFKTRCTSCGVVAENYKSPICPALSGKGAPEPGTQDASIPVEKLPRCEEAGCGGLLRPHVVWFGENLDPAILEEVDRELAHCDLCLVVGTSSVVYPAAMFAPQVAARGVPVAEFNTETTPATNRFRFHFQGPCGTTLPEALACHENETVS
# Chain of Sirt5 Y102F (chain, as listed by the source Y102F): as the sequence (chain, as listed by the source R105M) above, with Y102F, M105R counted along it
# Chain of human Sirt5 (chain, as listed by the source): as the sequence (chain, as listed by the source R105M) above, with M105R counted along it
# Chain of Sirt5 H158Y (chain, as listed by the source H158Y): as the sequence (chain, as listed by the source R105M) above, with M105R, H158Y counted along it
substance,measurement,setting,value
Sirt5 H158Y,"Km for peptide (µM), desuccinylation",[1],ND (>750)*
same,"kcat/Km (s^-1M^-1), desuccinylation",[1],75 s^-1M^-1
Sirt5 R105M,"Km for peptide (µM), deacetylation",[2],ND (>750)*
same,"kcat/Km (s^-1M^-1), deacetylation",[2],0.5 s^-1M^-1
same,"Km for peptide (µM), desuccinylation",[1],ND (>750)*
same,"kcat/Km (s^-1M^-1), desuccinylation",[1],0.9 s^-1M^-1
Sirt5 Y102F,"Km for peptide (µM), deacetylation",[2],ND (>750)*
same,"kcat/Km (s^-1M^-1), deacetylation",[2],2 s^-1M^-1
same,"Km for peptide (µM), desuccinylation",[1],ND (>750)*
same,"kcat/Km (s^-1M^-1), desuccinylation",[1],397 s^-1M^-1
human Sirt5,"Peptide Km (µM), deacetylation",[3],ND (>750)
same,"kcat/Km (s^-1M^-1), deacetylation",[3],18 s^-1M^-1
same,"Peptide Km (µM), demalonylation",[4],150 µM
same,"kcat (s^-1), demalonylation",[4],0.079 s⁻¹
same,"kcat/Km (s^-1M^-1), demalonylation",[4],520 s^-1M^-1
same,"Peptide Km (µM), desuccinylation",[5],450 µM
same,"kcat (s^-1), desuccinylation",[5],0.268 s⁻¹
same,"kcat/Km (s^-1M^-1), desuccinylation",[5],600 s^-1M^-1
same,"Peptide Km (µM), deacetylation",[6],ND (>750)
same,"kcat/Km (s^-1M^-1), deacetylation",[6],< 2 s^-1M^-1
same,"Peptide Km (µM), demalonylation",[7],8.7 µM
same,"kcat (s^-1), demalonylation",[7],0.014 s⁻¹
same,"kcat/Km (s^-1M^-1), demalonylation",[7],1600 s^-1M^-1
same,"Peptide Km (µM), desuccinylation",[8],14 µM
same,"kcat (s^-1), desuccinylation",[8],0.028 s⁻¹
same,"kcat/Km (s^-1M^-1), desuccinylation",[8],2000 s^-1M^-1
same,"Peptide Km (µM), deacetylation",[9],ND (>750)
same,"kcat/Km (s^-1M^-1), deacetylation",[9],7.8 s^-1M^-1
same,"Peptide Km (µM), demalonylation",[10],6.1 µM
same,"kcat (s^-1), demalonylation",[10],0.037 s⁻¹
same,"kcat/Km (s^-1M^-1), demalonylation",[10],6100 s^-1M^-1
same,"Peptide Km (µM), desuccinylation",[11],5.8 µM
same,"kcat (s^-1), desuccinylation",[11],0.025 s⁻¹
same,"kcat/Km (s^-1M^-1), desuccinylation",[11],4300 s^-1M^-1
same,Km for acetyl peptide (µM),[2],ND (>750)*
same,"Km for peptide (µM), deacetylation",[2],ND (>750)*
same,hydrolysis of acyl peptide (LC-MS),[2],"with Sirt5, very little hydrolysis of the acetyl peptide was observed"
same,kcat/Km (s^-1M^-1),[2],2 s^-1M^-1
same,"kcat/Km (s^-1M^-1), deacetylation",[2],2 s^-1M^-1
same,hydrolysis of acyl peptide (LC-MS),[12],the malonyl and succinyl peptides were hydrolyzed significantly
same,"Km for peptide (µM), desuccinylation",[1],41 µM
same,hydrolysis of acyl peptide (LC-MS),[1],the malonyl and succinyl peptides were hydrolyzed significantly
same,"kcat (s^-1), desuccinylation",[1],0.029 s⁻¹
same,"kcat/Km (s^-1M^-1), desuccinylation",[1],710 s^-1M^-1
same,"percent hydrolysis in 3 hrs, 1 µM Sirt5 (HPLC)",[13],10% and 60% hydrolysis by 1 and 5 µM of Sirt5 in 3 hrs
same,"percent hydrolysis in 3 hrs, 5 µM Sirt5 (HPLC)",[13],10% and 60% hydrolysis by 1 and 5 µM of Sirt5 in 3 hrs
human Sirt6,hydrolysis of acyl peptide (LC-MS),[2],"Sirt6 and Sirt7 have no detectable activity on acetyl, malonyl, or succinyl peptides under the conditions tested"
same,hydrolysis of acyl peptide (LC-MS),[12],"Sirt6 and Sirt7 have no detectable activity on acetyl, malonyl, or succinyl peptides under the conditions tested"
same,hydrolysis of acyl peptide (LC-MS),[1],"Sirt6 and Sirt7 have no detectable activity on acetyl, malonyl, or succinyl peptides under the conditions tested"
